T1: ABI3-B3 (partial ABI3, B3 domain) (UniProt Q01593 559-720)
T1 sequence: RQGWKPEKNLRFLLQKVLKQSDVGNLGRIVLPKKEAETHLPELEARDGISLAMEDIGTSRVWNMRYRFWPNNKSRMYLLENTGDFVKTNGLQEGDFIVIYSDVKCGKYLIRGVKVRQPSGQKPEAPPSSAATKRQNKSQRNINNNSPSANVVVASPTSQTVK

B1: 31RY2-bio (TIP3;1 promoter RY2) (dsDNA)
DNA 1: ATCTACTTGGCACACATGCATGCTTAGTCAACACA
DNA 2: TGTGTTGACTAAGCATGCATGTGTGCCAAGTAGAT
B2: 31RY2-cold (dsDNA)
DNA 1: B1 DNA 1
DNA 2: B1 DNA 2
B3: 32RY-mu (dsDNA)
DNA 1: CTTGATCCACTTGGCACAGCGTACTAGATATATAGTCACAGC
DNA 2: GCTGTGACTATATATCTAGTACGCTGTGCCAAGTGGATCAAG
B4: 31RY2-mu (dsDNA)
DNA 1: ATCTACTTGGCACAGCGCTAGCCTTAGTCAACACA
DNA 2: TGTGTTGACTAAGGCTAGCGCTGTGCCAAGTAGAT
B5: 32RY-bio (TIP3;2 promoter RY) (dsDNA)
DNA 1: CTTGATCCACTTGGCACACATGCATAGATATATAGTCACAGC
DNA 2: GCTGTGACTATATATCTATGCATGTGTGCCAAGTGGATCAAG
B6: 32RY-cold (dsDNA)
DNA 1: B5 DNA 1
DNA 2: B5 DNA 2

How the values were obtained:
[1] = target: T1, ABI3-B3 (partial ABI3, B3 domain); test: EMSA; EMSA: 1x LightShift binding buffer, 2.5% glycerol, 50 ng/ul poly(dI-dC), 50 mM KCl, 0.5 mM EDTA, 20 C, 30 min; pH not stated; conditions: protein: recombinant; tags: His (pET28a, Ni-NTA); label: biotin; blunt
[2] = target: T1, ABI3-B3 (partial ABI3, B3 domain); test: competition; 40- or 200-fold unlabelled competitor vs 31RY2-bio; EMSA: 1x LightShift binding buffer, 2.5% glycerol, 50 ng/ul poly(dI-dC), 50 mM KCl, 0.5 mM EDTA, 20 C, 30 min; pH not stated; conditions: protein: recombinant; tags: His (pET28a, Ni-NTA); blunt
[3] = target: T1, ABI3-B3 (partial ABI3, B3 domain); test: competition; 40- or 200-fold unlabelled competitor vs 32RY-bio; EMSA: 1x LightShift binding buffer, 2.5% glycerol, 50 ng/ul poly(dI-dC), 50 mM KCl, 0.5 mM EDTA, 20 C, 30 min; pH not stated; conditions: protein: recombinant; tags: His (pET28a, Ni-NTA); blunt

Binder	binding result [1]	binding result [2]	binding result [3]
B1	binds		
B2		binds	
B3			no binding
B4		no binding	
B5	binds		
B6			binds
